Test results as given in PMC8096101.

Biological target: SMO657-nanoluc (UniProt P56726)
Experiment: BRET
Details: HEK293 cells; SMO657-nanoluc donor, YFP-tagged PKA-C acceptor; BRET ratio (YFP/nanoluc), background-subtracted; parent: est. 2.4; read off a plot

Sequence of UniProt P56726 (P56726 65-657): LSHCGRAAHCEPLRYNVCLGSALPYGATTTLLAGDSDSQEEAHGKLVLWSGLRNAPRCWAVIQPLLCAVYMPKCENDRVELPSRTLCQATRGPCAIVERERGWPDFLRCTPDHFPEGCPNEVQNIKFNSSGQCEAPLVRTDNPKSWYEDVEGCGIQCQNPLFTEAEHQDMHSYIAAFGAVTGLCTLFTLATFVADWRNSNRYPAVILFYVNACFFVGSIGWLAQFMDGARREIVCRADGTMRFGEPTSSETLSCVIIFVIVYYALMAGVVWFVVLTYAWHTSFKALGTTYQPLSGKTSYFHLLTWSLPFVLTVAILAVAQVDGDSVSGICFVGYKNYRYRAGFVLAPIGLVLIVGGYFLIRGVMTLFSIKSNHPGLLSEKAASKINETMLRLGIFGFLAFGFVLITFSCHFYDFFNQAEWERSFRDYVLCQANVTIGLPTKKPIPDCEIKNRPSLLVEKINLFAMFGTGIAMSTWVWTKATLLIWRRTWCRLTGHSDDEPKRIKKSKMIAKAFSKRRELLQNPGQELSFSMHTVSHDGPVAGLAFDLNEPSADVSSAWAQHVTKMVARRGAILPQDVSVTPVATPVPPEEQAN

- response: 2.5 BRET
Substance: PKA-C-YFP (PKA catalytic subunit alpha, carboxyl-terminally YFP-tagged) (from UniProt P05132) H87Q; W196R
